This note sets out measurements from paper PMC5042407, “Structural Details of Ufd1 Binding to p97 and Their Functional Implications in ER-Associated Degradation” (PLoS ONE, 2016).

The target of the test is T1, p97 N domain (21-196) (UniProt P55072 21-196).
T1 construct: p97 (VCP, valosin-containing protein), N-terminal domain, residues 21-196; The methods describe only the fusion proteins (pVFT3S vector, His6-thioredoxin cut off by TEV, E. coli Rosetta2 (DE3)); also called p97N^WT; N-terminal domain of p97; source: recombinant
T1 sequence (P55072 21-196): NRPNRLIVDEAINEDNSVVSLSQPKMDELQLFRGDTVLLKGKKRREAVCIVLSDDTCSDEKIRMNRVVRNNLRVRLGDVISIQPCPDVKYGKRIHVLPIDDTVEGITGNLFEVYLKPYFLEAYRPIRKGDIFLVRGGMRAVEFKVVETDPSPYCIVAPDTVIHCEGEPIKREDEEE
Briefly: ITC; p97 N domain (2.0 mM) injected into the cell with Ufd1 SHP peptide (0.050 mM), 25°C, one-site binding model. Particulars: both partners purified.

B1: Ufd1 SHP box peptide (225-235) (peptide)
peptide: FRAFSGSGNRL
notes: also called Ufd1SHP^WT; SHP box of Ufd1; source: synthetic peptide (Peptron, Korea)
For the molecule B1, the dissociation constant Kd was 221 ± 36 µM.
